Assay results reported in US10239925B2, “Peptides and combination of peptides for use in immunotherapy against ovarian cancer and other cancers” (IMMATICS BIOTECHNOLOGIES GMBH, priority 2015, dated 2019).

Biological target: HLA-A*02:01 (Homo sapiens, UniProt P04439, D140Y/D185E/D98H/E176V/E277Q/G131W/G231S/I119V/I121R/I166T/I218V/L300P/L318F/N151K/N90K/P208A/P217A/Q86G/Q94H/R138H/R169H/T345S)
Assay: MHC binding assay (UV-ligand exchange, anti-β2m ELISA, peptide exchange yield)
Settings: binding to HLA-A*02:01
Procedure, shortened: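 Peptide-MHC complexes formed by UV-ligand exchange, cleaving a UV-sensitive placeholder peptide in favour of the test peptide. Exchange yield measured by ELISA: monomers diluted 100-fold onto streptavidin-coated plates, 1 h 37 °C, detected with 2 ug/ml HRP anti-β2m and TMB, absorbance at 450 nm.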

Peptide exchange (MHC class I binding score, peptide exchange yield) | Substance
“+++” (>50 = +++) | 248 (FLFPNQYVDV; listed as Homo sapiens) [compound 248]
“++” (>20% = ++) | 87 (ALPEAPAPLLPHIT; listed as Homo sapiens) [compound 87]
“++++” (>75% = ++++) | 289 (VLLEIEDLQV; listed as Homo sapiens) [compound 289]
“++” (>20% = ++) | 412 (YLDDLNEGVYI; listed as Homo sapiens) [compound 412]
“+++” (>50 = +++) | 462 (KLAKQPETV; listed as Homo sapiens) [compound 462]
“+++” (>50 = +++) | 313 (VLFDDELLMV; listed as Homo sapiens) [compound 313]
“++++” (>75% = ++++) | 159 (GLVGNPLPSV; listed as Homo sapiens) [compound 159]
“+++” (>50 = +++) | 473 (AMATESILHFA; listed as Homo sapiens) [compound 473]
“+++” (>50 = +++) | 308 (SQYSGQLHEV; listed as Homo sapiens) [compound 308]
“++++” (>75% = ++++) | 104 (STMEQNFLL; listed as Homo sapiens) [compound 104]
“+++” (>50 = +++) | 23 (VLLDDIFAQL; listed as Homo sapiens) [compound 23]
“+++” (>50 = +++) | 175 (YLFENISQL; listed as Homo sapiens) [compound 175]
“++” (>20% = ++) | 228 (AMQEYIAVV; listed as Homo sapiens) [compound 228]
“+” (>10% = +) | 230 (ILVDWLVEV; listed as Homo sapiens) [compound 230]
“+++” (>50 = +++) | 208 (KISPVTFSV; listed as Homo sapiens) [compound 208]
“++” (>20% = ++) | 373 (SLLEDKGLAEV; listed as Homo sapiens) [compound 373]
“++” (>20% = ++) | 218 (SALEELVNV; listed as Homo sapiens) [compound 218]
“+++” (>50 = +++) | 496 (FLVEKQPPQV; listed as Homo sapiens) [compound 496]
“+++” (>50 = +++) | 184 (YLMDINGKMWL; listed as Homo sapiens) [compound 184]
“+++” (>50 = +++) | 39 (SVAPNLPAV; listed as Homo sapiens) [compound 39]
“++++” (>75% = ++++) | 62 (VLLDVSAGQLLM; listed as Homo sapiens) [compound 62]
“+++” (>50 = +++) | 469 (YLASDEITTV; listed as Homo sapiens) [compound 469]
“++++” (>75% = ++++) | 387 (ALFQATAEV; listed as Homo sapiens) [compound 387]
“++” (>20% = ++) | 548 (ALWENPESGEL; listed as Homo sapiens) [compound 548]
“++” (>20% = ++) | 33 (VLLSLLEKV; listed as Homo sapiens) [compound 33]

Peptide exchange (MHC class I binding score, peptide exchange yield) | Substance
“+++” (>50 = +++) | 479 (SLFGNSGILENV; listed as Homo sapiens) [compound 479]
“+++” (>50 = +++) | 512 (SLSEIVPCL; listed as Homo sapiens) [compound 512]
“+++” (>50 = +++) | 262 (LLWGDLIWL; listed as Homo sapiens) [compound 262]
“++++” (>75% = ++++) | 68 (SLMELPRGLFL; listed as Homo sapiens) [compound 68]
“+++” (>50 = +++) | 383 (ALLELENSVTL; listed as Homo sapiens) [compound 383]
“+++” (>50 = +++) | 299 (YLLETSGNL; listed as Homo sapiens) [compound 299]
“++” (>20% = ++) | 93 (LLQAIKLYL; listed as Homo sapiens) [compound 93]
“+++” (>50 = +++) | 264 (SLQEQLHSV; listed as Homo sapiens) [compound 264]
“++” (>20% = ++) | 21 (VLDELDMEL; listed as Homo sapiens) [compound 21]
“+++” (>50 = +++) | 457 (SLLPGNLVEKV; listed as Homo sapiens) [compound 457]
“++” (>20% = ++) | 64 (YAAPGGLIGV; listed as Homo sapiens) [compound 64]
“+++” (>50 = +++) | 386 (ILFRYPLTI; listed as Homo sapiens) [compound 386]
“+++” (>50 = +++) | 521 (MLLTKLPTI; listed as Homo sapiens) [compound 521]
“+++” (>50 = +++) | 493 (GLLGEKTQDLIGV; listed as Homo sapiens) [compound 493]
“+++” (>50 = +++) | 495 (FIFSEKPVFV; listed as Homo sapiens) [compound 495]
“++++” (>75% = ++++) | 348 (ILLDVKTRL; listed as Homo sapiens) [compound 348]
“+++” (>50 = +++) | 250 (ALSEEGLLVYL; listed as Homo sapiens) [compound 250]
“++++” (>75% = ++++) | 337 (HLLSELEAAPYL; listed as Homo sapiens) [compound 337]
“+++” (>50 = +++) | 83 (ILAPTVMMI; listed as Homo sapiens) [compound 83]
“+++” (>50 = +++) | 271 (LVYPLELYPA; listed as Homo sapiens) [compound 271]
“+++” (>50 = +++) | 142 (FLFATPVFI; listed as Homo sapiens) [compound 142]
“++” (>20% = ++) | 510 (KLYSVVSQL; listed as Homo sapiens) [compound 510]
“++” (>20% = ++) | 491 (GLNDRSDAV; listed as Homo sapiens) [compound 491]
“+++” (>50 = +++) | 618 (VLFDSESIGIYV; listed as Homo sapiens) [compound 618]
“+++” (>50 = +++) | 297 (VLADIELAQA; listed as Homo sapiens) [compound 297]
